{"source": "patent US20250043287", "about": "“SYNTHETIC MEMORY WITH INTERCEPTING RECOMBINASE FUNCTION” (Georgia Tech Research Corporation, published 2025)", "binders": {"B1": {"name": "A118 attP Ottg P+1 (dsDNA)", "DNA 1": "TTAGTTCCTCGTTTTCTCTCGTTAATTTTGAGCGCTCAAAAAAACTAAA", "DNA 2": "TTTAGTTTTTTTGAGCGCTCAAAATTAACGAGAGAAAACGAGGAACTAA"}, "B2": {"name": "A118 attP Ogtg (Osym) P+1 (dsDNA)", "DNA 1": "B1 DNA 1 with T28G, A39C", "DNA 2": "B1 DNA 2 with T11G, A22C"}, "B3": {"name": "A118 attP Oagg P+1 (dsDNA)", "DNA 1": "B1 DNA 1 with T28A, T29G, A38C, A39T", "DNA 2": "B1 DNA 2 with T11A, T12G, A21C, A22T"}}, "key": {"[1]": {"biological_target": "I+HQN (UniProt P03023 SEQ:1-360, Y17H,R22N)", "test": "cell_activity; day 1 dynamic range, IPTG; 57.65 day 3", "conditions": "chain copies: 4"}, "[2]": {"biological_target": "T1, E+HQN (UniProt O87590 SEQ:1-337, Y17H,R22N)", "T1 sequence": "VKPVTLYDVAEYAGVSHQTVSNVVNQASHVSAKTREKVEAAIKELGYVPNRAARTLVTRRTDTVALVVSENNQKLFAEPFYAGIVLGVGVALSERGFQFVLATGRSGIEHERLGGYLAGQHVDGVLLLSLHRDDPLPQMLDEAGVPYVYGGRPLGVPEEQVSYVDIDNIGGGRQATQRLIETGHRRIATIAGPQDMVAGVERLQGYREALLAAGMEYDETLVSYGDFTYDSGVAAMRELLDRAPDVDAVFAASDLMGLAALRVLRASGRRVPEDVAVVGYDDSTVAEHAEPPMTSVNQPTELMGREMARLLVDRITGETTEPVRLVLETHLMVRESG", "test": "cell_activity; day 1 dynamic range of interception, cellobiose induced; 114.83 day 3", "conditions": "chain copies: 2"}, "[3]": {"biological_target": "T2, I+YQR (LacI) (UniProt P03023 SEQ:1-360)", "T2 chain": "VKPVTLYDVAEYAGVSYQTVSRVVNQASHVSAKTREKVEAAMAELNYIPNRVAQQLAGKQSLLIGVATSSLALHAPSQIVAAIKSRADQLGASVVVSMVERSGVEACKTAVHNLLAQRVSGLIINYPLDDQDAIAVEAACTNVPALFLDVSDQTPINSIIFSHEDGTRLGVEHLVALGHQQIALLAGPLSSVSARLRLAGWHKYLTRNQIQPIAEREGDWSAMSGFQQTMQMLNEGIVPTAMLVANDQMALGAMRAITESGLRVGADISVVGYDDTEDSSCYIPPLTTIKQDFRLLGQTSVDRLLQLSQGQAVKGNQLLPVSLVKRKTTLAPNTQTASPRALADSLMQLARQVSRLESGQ", "test": "cell_activity; day 1 dynamic range; 29.77 day 3", "conditions": "chain copies: 4"}, "[4]": {"biological_target": "T3, E+YQR (CelR core, LacI-type DBD) (UniProt O87590 SEQ:1-337)", "T3 chain": "T1 sequence with H17Y, N22R", "test": "cell_activity; day 1 dynamic range; 141.52 day 3", "conditions": "chain copies: 2"}, "[5]": {"biological_target": "I+KSL (UniProt P03023 SEQ:1-360, Y17K,Q18S,R22L)", "test": "cell_activity; day 1 dynamic range; 7.42 day 3", "conditions": "chain copies: 4"}, "[6]": {"biological_target": "T4, E+KSL (UniProt O87590 SEQ:1-337, Y17K,Q18S,R22L)", "T4 sequence": "T1 sequence with H17K, Q18S, N22L", "test": "cell_activity; day 1 dynamic range; 71.51 day 3", "conditions": "chain copies: 2"}}, "note": "Where a chain is given by its changes, count along the chain named.", "data": [{"binder": "B1", "values": [{"measurement": "binding signal", "setting": "[1]", "value": 15.4, "unit": "fold"}, {"measurement": "binding signal", "setting": "[2]", "value": 20.6, "unit": "fold"}]}, {"binder": "B2", "values": [{"measurement": "dynamic range", "setting": "[3]", "value": 9.26, "unit": "fold"}, {"measurement": "binding signal", "setting": "[4]", "value": 20.9, "unit": "fold"}]}, {"binder": "B3", "values": [{"measurement": "binding signal", "setting": "[5]", "value": 5.44, "unit": "fold"}, {"measurement": "binding signal", "setting": "[6]", "value": 14.7, "unit": "fold"}]}]}
